In the Immune Epitope Database (IEDB):

How the values were obtained:
Experiment in all cases: IEDB peptide-MHC binding, purified MHC/competitive/radioactivity; filed as Kd, often an IC50 or EC50 that approximates it; ≥ and ≤ were set here for values at or beyond the usual limits of such assays
HLA-A*29:02 = biological target: HLA-A*29:02
HLA-A*23:01 = biological target: HLA-A*23:01
HLA-A*26:01 = biological target: HLA-A*26:01
HLA-A*01:01 = biological target: HLA-A*01:01
HLA-A*24:02 = biological target: HLA-A*24:02
HLA-A*30:02 = biological target: HLA-A*30:02
HLA-A*33:01 = biological target: HLA-A*33:01
HLA-A*30:01 = biological target: HLA-A*30:01
HLA-A*68:01 = biological target: HLA-A*68:01
HLA-A*03:01 = conditions: source organism: Vaccinia virus WR
HLA-A*11:01 = biological target: HLA-A*11:01
HLA-A*31:01 = conditions: source organism: Vaccinia virus WR
HLA-B*08:01 = conditions: source organism: Dengue virus 3 Martinique/1243/1999
[1] = source organism: SARS coronavirus Tor2
[2] = source organism: Mammarenavirus brazilense
[3] = source organism: Dengue virus 3 Martinique/1243/1999
[4] = source organism: Vaccinia virus WR
[5] = source organism: Lassa virus GA391
[6] = source organism: Triticum aestivum
[7] = source organism: Lassa virus Josiah
[8] = source organism: Dengue virus 1 Brazil/97-11/1997

Sequence | Kd (HLA-A*29:02; [1]) | Kd (HLA-A*23:01; [1]) | Kd (HLA-A*26:01; [1]) | Kd (HLA-A*01:01; [1]) | Kd (HLA-A*24:02; [1]) | Kd (HLA-A*30:02; [1]) | other results
ISAGFSLWIY | 2.3 nM | ≥ 28800 nM | 1090 nM | 52.3 nM | ≥ 70300 nM | 9.64 nM | –
SYATHHDKF | ≥ 22600 nM | ≥ 90700 nM | ≥ 77900 nM | ≥ 39600 nM | ≥ 105000 nM | ≥ 85700 nM | –
YSELRPDTRY | 140 nM | ≥ 70000 nM | 12000 nM | 6.22 nM | ≥ 36000 nM | 165 nM | –
VYHITVSQI | ≥ 28900 nM | 98 nM | ≥ 77900 nM | ≥ 31300 nM | 26.6 nM | ≥ 81100 nM | –
TYTEIEPKL | 12200 nM | ≥ 21500 nM | ≥ 77900 nM | ≥ 78100 nM | ≥ 29500 nM | ≥ 78900 nM | –
ETLLPLTQY | 262 nM | ≥ 77800 nM | 43.5 nM | ≥ 33100 nM | ≥ 77600 nM | 4310 nM | –
SIKRNYPYLF | – | – | – | – | – | – | Kd (HLA-A*29:02; [2]): 2340 nM; Kd (HLA-A*23:01; [2]): 758 nM; Kd (HLA-A*24:02; [2]): 1020 nM
EVKTCTWPK | – | – | – | – | – | – | Kd (HLA-A*33:01; [3]): 8.54 nM; Kd (HLA-A*30:01; [3]): 9340 nM; Kd (HLA-A*68:01; [3]): 25.2 nM
DYLVSTQEF | 259 nM | 18800 nM | 14500 nM | ≥ 78100 nM | ≥ 43900 nM | 3350 nM | –
KTLDISSFY | – | – | – | – | – | – | Kd (HLA-A*33:01; [4]): ≥ 41900 nM; Kd (HLA-A*03:01): 19 nM; Kd (HLA-A*11:01; [4]): 6.46 nM; Kd (HLA-A*30:01; [4]): 23.3 nM; Kd (HLA-A*31:01): 88.3 nM; Kd (HLA-A*68:01; [4]): 187 nM
QYIKWPWYVW | 3880 nM | 0.784 nM | ≥ 69700 nM | ≥ 32000 nM | 2.48 nM | 10600 nM | –
RYNLDPDSI | – | – | – | – | – | – | Kd (HLA-A*29:02; [2]): ≥ 34100 nM; Kd (HLA-A*23:01; [2]): 7490 nM; Kd (HLA-A*24:02; [2]): 17700 nM
ACADGTRHTY | 6170 nM | ≥ 70000 nM | ≥ 86900 nM | 2160 nM | ≥ 70300 nM | 32.8 nM | –
TTTGIGYQPY | 8.8 nM | ≥ 70000 nM | 56.8 nM | 126 nM | ≥ 70300 nM | 204 nM | –
FYLYLTFYF | ≥ 75000 nM | ≥ 29300 nM | 2050 nM | 3690 nM | ≥ 77600 nM | ≥ 96800 nM | –
FIAQSKGLY | 4.94 nM | ≥ 77800 nM | 88.4 nM | 465 nM | ≥ 77600 nM | 24.5 nM | –
YCNYSRYWYL | – | – | – | – | – | – | Kd (HLA-A*29:02; [5]): 8340 nM; Kd (HLA-A*23:01; [5]): 1150 nM; Kd (HLA-A*26:01; [5]): ≥ 69700 nM; Kd (HLA-A*01:01; [5]): ≥ 70400 nM; Kd (HLA-A*24:02; [5]): 3280 nM; Kd (HLA-A*30:02; [5]): 11900 nM

Sequence | Kd (HLA-A*29:02; [1]) | Kd (HLA-A*23:01; [1]) | Kd (HLA-A*26:01; [1]) | Kd (HLA-A*01:01; [1]) | Kd (HLA-A*24:02; [1]) | Kd (HLA-A*30:02; [1]) | other results
PTLVPQEHY | 10900 nM | ≥ 77800 nM | ≥ 102000 nM | 9070 nM | ≥ 77600 nM | 4510 nM | –
MFKKRNLTI | – | – | – | – | – | – | Kd (HLA-A*23:01; [3]): 475 nM; Kd (HLA-A*30:01; [3]): 143 nM; Kd (HLA-A*24:02; [3]): 158 nM; Kd (HLA-B*08:01): 15.7 nM
QMISSIDRFF | – | – | – | – | – | – | Kd (HLA-A*29:02; [2]): 1850 nM; Kd (HLA-A*23:01; [2]): 758 nM; Kd (HLA-A*24:02; [2]): 4690 nM
QYPSGQGSF | – | – | – | – | – | – | Kd (HLA-A*29:02; [6]): 175 nM; Kd (HLA-A*23:01; [6]): ≥ 35700 nM; Kd (HLA-A*26:01; [6]): ≥ 49300 nM; Kd (HLA-A*01:01; [6]): ≥ 61500 nM; Kd (HLA-A*24:02; [6]): 3390 nM; Kd (HLA-A*30:02; [6]): 1.17 nM
NYFKKVDGI | 2530 nM | 11600 nM | ≥ 77900 nM | ≥ 51700 nM | ≥ 20300 nM | 11800 nM | –
SWFITQRNF | 16.2 nM | 3900 nM | ≥ 77900 nM | ≥ 78100 nM | ≥ 40000 nM | 0.215 nM | –
KIRPTRSVY | – | – | – | – | – | – | Kd (HLA-A*30:01; [4]): 7.24 nM
KTHTLWSNG | – | – | – | – | – | – | Kd (HLA-A*30:01; source organism: Dengue virus 4 Philippines/H241/1956): 81.4 nM
TFKNAHAKK | – | – | – | – | – | – | Kd (HLA-A*30:01; [3]): 111 nM
GIDVTDLFA | – | – | – | – | – | – | Kd (HLA-A*29:02; [7]): ≥ 78900 nM; Kd (HLA-A*23:01; [7]): ≥ 68400 nM; Kd (HLA-A*26:01; [7]): ≥ 77900 nM; Kd (HLA-A*01:01; [7]): 261 nM; Kd (HLA-A*24:02; [7]): ≥ 77500 nM; Kd (HLA-A*30:02; [7]): ≥ 40500 nM
MQKCYFSYK | – | – | – | – | – | – | Kd (HLA-A*30:01; [4]): 0.527 nM
YTFFSYLMK | – | – | – | – | – | – | Kd (HLA-A*33:01; [4]): 3010 nM; Kd (HLA-A*03:01): 9.77 nM; Kd (HLA-A*11:01; [4]): 0.563 nM; Kd (HLA-A*30:01; [4]): 473 nM; Kd (HLA-A*31:01): 3960 nM; Kd (HLA-A*68:01; [4]): 0.813 nM
MVLLTMKEK | – | – | – | – | – | – | Kd (HLA-A*11:01; [8]): 366 nM; Kd (HLA-A*30:01; [8]): 2780 nM
RYRSGFWII | – | – | – | – | – | – | Kd (HLA-A*30:01; [4]): 8.74 nM
TVRDGQLEV | – | – | – | – | – | – | Kd (HLA-A*30:01; [4]): 12.8 nM
NTLISSDGAR | – | – | – | – | – | – | Kd (HLA-A*33:01; [4]): 286 nM; Kd (HLA-A*29:02; [4]): ≥ 46900 nM; Kd (HLA-A*03:01): 2350 nM; Kd (HLA-A*11:01; [4]): 359 nM; Kd (HLA-A*31:01): 260 nM; Kd (HLA-A*68:01; [4]): 6.07 nM
